This is an account of results in paper PMC5345129.

Test [1] concerns the target myc-tagged, constitutively active Gα12 (GTPase-deficient Q229L mutant) (UniProt P27600). The test is described as follows: GST co-precipitation (pull-down), immunoblot bands quantified with ImageJ. The note with it: parent: 100; read off a plot. For orientation: In western blotting, separated proteins are transferred to a membrane and probed.
Test [2] deals with GST-fusion of the 257-amino acid region of p114RhoGEF corresponding to the Gα12-binding region of AKAP-Lbc. As to the kind of experiment: GST co-precipitation (pull-down) from HEK293 cell extracts, immunoblot bands quantified with ImageJ. To be noted: parent: est. 100; read off a plot.
Test [3] concerns the target GST-fusion of the RH domain of LARG (leukemia-associated RhoGEF). The description is as above. To be noted: parent: est. 100; read off a plot.
Test [4] has as its target GST-fusion of the 257-amino acid C-terminus of AKAP-Lbc. The test is described as above. The note with it: parent: est. 100; read off a plot.
Test [5] concerns the target GST-fusion of the 257-amino acid C-terminus of AKAP-Lbc (human). As to the kind of experiment: pull-down; GST fusion proteins bound to Glutathione Sepharose 4B; Gα variants from high-speed supernatants of transfected HEK293 cells, detergent diluted to 0.05% polyoxyethylene-10-lauryl ether; 50 mM HEPES pH 7.5, 1 mM EDTA, 3 mM dithiothreitol, 10 mM MgSO4; 2 h at 4°C; three washes; immunoblot (anti-Gα12, anti-myc or anti-EGFP); 5% of the extract kept as load.

For test [6], the target named is T1, GST-fusion of the 257-amino acid region of p114RhoGEF corresponding to the Gα12-binding region of AKAP-Lbc (human).
T1 sequence (Q6ZSZ5 whole entry, looked up): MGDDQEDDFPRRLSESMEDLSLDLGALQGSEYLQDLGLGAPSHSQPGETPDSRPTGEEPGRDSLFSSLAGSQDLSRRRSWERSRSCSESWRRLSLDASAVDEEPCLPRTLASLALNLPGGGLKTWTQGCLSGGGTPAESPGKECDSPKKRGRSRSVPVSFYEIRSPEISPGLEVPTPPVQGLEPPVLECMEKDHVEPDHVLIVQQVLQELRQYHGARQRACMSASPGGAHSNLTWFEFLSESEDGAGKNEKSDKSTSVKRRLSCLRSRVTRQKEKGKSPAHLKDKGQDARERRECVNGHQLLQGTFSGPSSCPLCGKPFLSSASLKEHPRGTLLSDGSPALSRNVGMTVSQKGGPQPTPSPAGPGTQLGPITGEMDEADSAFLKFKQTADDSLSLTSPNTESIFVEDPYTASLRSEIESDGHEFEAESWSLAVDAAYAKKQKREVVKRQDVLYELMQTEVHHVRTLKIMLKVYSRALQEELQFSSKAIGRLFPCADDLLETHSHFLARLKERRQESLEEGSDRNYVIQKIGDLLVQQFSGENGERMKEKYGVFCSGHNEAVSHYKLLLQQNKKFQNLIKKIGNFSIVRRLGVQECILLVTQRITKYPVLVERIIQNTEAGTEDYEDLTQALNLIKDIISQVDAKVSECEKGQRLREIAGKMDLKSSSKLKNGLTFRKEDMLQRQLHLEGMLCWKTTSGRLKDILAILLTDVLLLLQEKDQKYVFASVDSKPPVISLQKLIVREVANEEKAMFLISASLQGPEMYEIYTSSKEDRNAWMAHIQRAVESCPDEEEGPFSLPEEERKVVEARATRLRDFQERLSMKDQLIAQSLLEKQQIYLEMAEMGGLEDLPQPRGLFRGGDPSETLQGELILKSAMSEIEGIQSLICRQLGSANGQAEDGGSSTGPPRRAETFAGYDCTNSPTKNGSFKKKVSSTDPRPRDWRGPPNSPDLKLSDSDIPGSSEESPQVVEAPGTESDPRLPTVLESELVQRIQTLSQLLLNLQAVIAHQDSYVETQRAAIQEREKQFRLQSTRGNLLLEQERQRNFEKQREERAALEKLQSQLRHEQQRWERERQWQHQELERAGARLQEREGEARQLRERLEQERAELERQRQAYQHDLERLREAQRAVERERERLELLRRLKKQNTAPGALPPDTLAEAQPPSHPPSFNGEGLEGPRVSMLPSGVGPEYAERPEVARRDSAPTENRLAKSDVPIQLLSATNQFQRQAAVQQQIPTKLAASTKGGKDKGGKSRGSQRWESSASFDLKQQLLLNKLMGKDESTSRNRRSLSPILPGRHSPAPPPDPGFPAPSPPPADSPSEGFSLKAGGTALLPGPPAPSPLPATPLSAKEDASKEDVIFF
Described as above.

Sequence of GST-fusion of the 257-amino acid C-terminus of AKAP-Lbc (human) (Q12802 whole entry, the tested form may be a part): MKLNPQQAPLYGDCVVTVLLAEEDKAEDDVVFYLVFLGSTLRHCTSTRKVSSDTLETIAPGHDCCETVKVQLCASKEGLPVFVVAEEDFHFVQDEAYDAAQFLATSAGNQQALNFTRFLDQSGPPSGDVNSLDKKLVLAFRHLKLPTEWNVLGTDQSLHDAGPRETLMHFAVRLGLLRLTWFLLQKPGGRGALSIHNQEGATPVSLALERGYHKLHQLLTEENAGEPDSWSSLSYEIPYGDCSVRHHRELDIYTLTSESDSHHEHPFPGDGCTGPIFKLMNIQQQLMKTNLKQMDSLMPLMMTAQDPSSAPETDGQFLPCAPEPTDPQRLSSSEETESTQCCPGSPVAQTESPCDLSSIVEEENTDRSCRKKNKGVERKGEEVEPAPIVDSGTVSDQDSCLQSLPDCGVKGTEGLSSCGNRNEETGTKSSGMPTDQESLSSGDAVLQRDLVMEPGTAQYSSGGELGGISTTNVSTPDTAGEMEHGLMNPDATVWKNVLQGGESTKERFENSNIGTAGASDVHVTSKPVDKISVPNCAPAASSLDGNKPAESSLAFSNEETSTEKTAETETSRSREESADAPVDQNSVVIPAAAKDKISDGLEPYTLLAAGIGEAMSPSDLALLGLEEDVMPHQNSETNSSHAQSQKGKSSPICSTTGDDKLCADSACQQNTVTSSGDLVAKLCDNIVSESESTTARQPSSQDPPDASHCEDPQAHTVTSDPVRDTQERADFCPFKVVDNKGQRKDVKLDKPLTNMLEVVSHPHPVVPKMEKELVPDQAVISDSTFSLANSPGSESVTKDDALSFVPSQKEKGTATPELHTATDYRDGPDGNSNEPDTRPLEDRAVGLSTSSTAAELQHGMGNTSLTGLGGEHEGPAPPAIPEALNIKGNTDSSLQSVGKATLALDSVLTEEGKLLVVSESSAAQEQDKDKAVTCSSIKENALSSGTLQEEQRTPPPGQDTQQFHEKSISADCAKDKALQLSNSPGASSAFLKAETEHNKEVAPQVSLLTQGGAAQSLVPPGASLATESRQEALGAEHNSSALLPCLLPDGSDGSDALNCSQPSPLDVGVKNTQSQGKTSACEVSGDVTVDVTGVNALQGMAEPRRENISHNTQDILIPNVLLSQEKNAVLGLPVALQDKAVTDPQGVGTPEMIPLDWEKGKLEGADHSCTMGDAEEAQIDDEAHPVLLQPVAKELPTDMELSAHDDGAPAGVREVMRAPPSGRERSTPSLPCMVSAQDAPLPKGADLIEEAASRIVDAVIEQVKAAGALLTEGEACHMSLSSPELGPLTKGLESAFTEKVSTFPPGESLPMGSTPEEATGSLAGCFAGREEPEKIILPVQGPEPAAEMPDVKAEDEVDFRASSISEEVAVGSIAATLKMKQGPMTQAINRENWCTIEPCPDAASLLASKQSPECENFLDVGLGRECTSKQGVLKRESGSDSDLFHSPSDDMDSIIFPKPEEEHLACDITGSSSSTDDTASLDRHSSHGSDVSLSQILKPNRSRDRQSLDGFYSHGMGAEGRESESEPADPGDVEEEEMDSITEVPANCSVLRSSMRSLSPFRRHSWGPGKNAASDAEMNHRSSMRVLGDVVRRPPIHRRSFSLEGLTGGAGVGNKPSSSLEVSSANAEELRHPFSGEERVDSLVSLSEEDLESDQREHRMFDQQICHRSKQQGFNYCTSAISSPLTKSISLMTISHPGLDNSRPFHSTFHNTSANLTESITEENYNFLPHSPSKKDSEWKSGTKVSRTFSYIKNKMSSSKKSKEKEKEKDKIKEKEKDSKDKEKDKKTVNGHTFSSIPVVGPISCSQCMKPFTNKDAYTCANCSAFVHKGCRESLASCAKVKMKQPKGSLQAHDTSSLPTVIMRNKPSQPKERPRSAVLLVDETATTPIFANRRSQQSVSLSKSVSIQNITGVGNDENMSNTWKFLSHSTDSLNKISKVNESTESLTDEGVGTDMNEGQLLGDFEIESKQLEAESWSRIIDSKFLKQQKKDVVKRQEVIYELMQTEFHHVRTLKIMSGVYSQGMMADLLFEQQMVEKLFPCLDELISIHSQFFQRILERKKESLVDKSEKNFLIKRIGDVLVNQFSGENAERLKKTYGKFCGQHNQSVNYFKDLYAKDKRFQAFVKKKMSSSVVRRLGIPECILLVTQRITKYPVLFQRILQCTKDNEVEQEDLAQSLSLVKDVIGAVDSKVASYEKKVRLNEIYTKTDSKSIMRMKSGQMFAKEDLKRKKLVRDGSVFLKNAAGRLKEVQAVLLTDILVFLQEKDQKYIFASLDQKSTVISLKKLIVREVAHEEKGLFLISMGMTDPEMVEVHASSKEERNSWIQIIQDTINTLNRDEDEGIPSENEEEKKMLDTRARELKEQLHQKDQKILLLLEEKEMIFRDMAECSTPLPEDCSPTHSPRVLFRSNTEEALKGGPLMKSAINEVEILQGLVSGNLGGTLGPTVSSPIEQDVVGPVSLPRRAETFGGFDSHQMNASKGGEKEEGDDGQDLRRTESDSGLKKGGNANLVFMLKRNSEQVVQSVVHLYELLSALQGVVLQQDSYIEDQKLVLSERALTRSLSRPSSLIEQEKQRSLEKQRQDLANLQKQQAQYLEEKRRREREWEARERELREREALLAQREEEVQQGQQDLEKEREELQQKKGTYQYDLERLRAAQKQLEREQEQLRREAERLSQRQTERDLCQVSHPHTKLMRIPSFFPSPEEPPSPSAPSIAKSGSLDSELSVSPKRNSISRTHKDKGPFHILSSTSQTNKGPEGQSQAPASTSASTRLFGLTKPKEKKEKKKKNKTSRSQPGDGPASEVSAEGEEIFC

Turning to “GST-fusion of the 257-amino acid C-terminus of AKAP-Lbc E2670R”, in test [1], the percent of parent was 33 % of control.

Take “GST-fusion of the 257-amino acid C-terminus of AKAP-Lbc E2576R”: the percent of parent in test [1] is 29 % of control.

As for “GST-fusion of the 257-amino acid region of p114RhoGEF corresponding to the Gα12-binding region of AKAP-Lbc E695R”, the percent of parent in test [1] is 42 % of control.

As to “myc-tagged, constitutively active Gα12 (GTPase-deficient Q229L mutant) (from UniProt P27600) Δ244-249 (sextet Asn-Ala-Ala-Ile-Arg-Ser in place of native residues 244-249)”, the percent of parent (% of 12QL control) came out at 95 in test [2], 16 in test [3] and 105 in test [4].

Consider “myc-tagged, constitutively active Gα12 (GTPase-deficient Q229L mutant) (from UniProt P27600) C11A”, for which the percent of parent (% of 12QL control) in test [3] was determined as 92.

“GST-fusion of the 257-amino acid region of p114RhoGEF corresponding to the Gα12-binding region of AKAP-Lbc E789R”: the percent of parent in test [1] is 37 % of control.

B1: myc-tagged, constitutively active Gα12 (Q229L) with C11A substitution (natural protein)
chain: MSGVVRTLSRALLPAEAGARERRAGAARDAEREARRRSRDIDALLARERRAVRRLVKILLLGAGESGKSTFLKQMRIIHGREFDQKALLEFRDTIFDNILKGSRVLVDARDKLGIPWQHSENEKHGMFLMAFENKAGLPVEPATFQLYVPALSALWRDSGIREAFSRRSEFQLGESVKYFLDNLDRIGQLNYFPSKQDILLARKATKGIVEHDFVIKKIPFKMVDVGGLRSQRQKWFQCFDGITSILFMVSSSEYDQVLMEDRRTNRLVESMNIFETIVNNKLFFNVSIILFLNKMDLLVEKVKSVSIKKHFPDFKGDPHRLEDVQRYLVQCFDRKRRNRSKPLFHHFTTAIDTENIRFVFHAVKDTILQENLKDIMLQ
As to B1, the results for the % loss of binding (co-precipitated Gα12 normalized for starting material, against non-mutated Gα12 Q229L) in test [5] and in test [6] were 60% and 72%, respectively.
